Assay results reported in patent US20190367586A1.

Target: RSV strain 18537 pre-fusion F (Ds-Cav1) (human respiratory syncytial virus subgroup B strain 18537) (UniProt P13843)
Experiment: ELISA, F protein coated

Chain of RSV strain 18537 pre-fusion F (Ds-Cav1) (human respiratory syncytial virus subgroup B strain 18537) (P13843 26-513): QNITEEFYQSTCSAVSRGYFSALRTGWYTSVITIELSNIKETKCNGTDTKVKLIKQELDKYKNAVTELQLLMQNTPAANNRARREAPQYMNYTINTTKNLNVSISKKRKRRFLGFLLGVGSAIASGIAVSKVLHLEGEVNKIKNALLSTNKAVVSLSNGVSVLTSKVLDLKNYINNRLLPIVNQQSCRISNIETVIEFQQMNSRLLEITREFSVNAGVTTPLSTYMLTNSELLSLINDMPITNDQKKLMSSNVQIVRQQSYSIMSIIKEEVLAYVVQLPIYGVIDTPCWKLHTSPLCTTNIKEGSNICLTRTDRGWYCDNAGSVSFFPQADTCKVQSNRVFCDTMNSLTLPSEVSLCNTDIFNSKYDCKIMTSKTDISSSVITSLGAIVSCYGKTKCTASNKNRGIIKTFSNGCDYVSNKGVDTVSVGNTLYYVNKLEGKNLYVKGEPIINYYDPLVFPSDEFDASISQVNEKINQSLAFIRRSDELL

| Substance | EC50 [µg/mL] |
| --- | --- |
| motavizumab (antibody) | 0.022 |
| palivizumab (antibody) | 0.046 |
